# From patent US20200069736A1 (WHITEHEAD INSTITUTE FOR BIOMEDICAL RESEARCH, published 2020)
# T1: murine Class II MHC molecules on wild-type C57BL/6 mouse B cells (mouse, UniProt P14434 24-256; P14483 28-265)
# T1 construct: whole, on cells; Endogenous MHC class II on B cells immobilised on streptavidin beads through biotinylated anti-CD19; also called mouse MHC class II
# T1 sequence (MHC II alpha, looked up): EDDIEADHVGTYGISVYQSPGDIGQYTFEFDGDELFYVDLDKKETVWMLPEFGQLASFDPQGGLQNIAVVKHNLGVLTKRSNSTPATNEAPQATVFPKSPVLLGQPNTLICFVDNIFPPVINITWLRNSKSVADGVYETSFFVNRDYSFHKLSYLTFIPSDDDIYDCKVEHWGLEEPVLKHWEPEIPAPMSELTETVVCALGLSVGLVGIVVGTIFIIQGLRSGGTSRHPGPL
# T1 sequence (MHC II beta, looked up): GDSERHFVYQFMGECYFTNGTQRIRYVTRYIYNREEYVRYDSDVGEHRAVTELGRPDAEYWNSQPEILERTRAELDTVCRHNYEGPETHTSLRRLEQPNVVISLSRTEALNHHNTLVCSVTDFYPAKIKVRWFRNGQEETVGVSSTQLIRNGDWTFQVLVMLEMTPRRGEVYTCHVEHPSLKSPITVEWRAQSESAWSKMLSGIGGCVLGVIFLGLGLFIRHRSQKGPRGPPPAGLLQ
# B1: 3G-myc-hGPA on the surface of mouse red blood cells, not labeled with VHH7 (other, human, not shown: small tags and cut ends)
# chain (part 1 of 2): GGG
# chain (part 2 of 2): LSTTEVAMHTSTSSSVTKSYISSQTNDTHKRDTYAATPRAHEVSEISVRTVYPPEEETGERVQLAHHFSEPEITLIIFGVMAGVIGTILLISYGIRRLIKKSPSDVKPLPSPDTDVPLSSVEIENPETSDQ
# notes: mature; also called 3G-myc-GPA red blood cells; unmodified red cells
# Molecular target: T1, murine Class II MHC molecules on …
# Experiment: B cell-red blood cell binding assay: B cells on magnetic beads, bound red cells detected by anti-hemoglobin immunoblot
# Description: FIG. 25 is a diagram showing conjugation of single domain antibody to engineered red blood cells and cell type-specific targeting. (A) Mouse mature red blood engineered to contain 3G-myc-GPA on the cell surface were incubated with. Sortase with or without VHH7-LPETG (SEQ ID NO: 44): a single domain antibody with binding specificity for mouse MHC class II molecules and sortase motif complementary to 3G. […] (B) Either wild type mouse B cells (expressing MHC class II) or B cells derived from MHC class II knock-out mice were immobilized on magnetic streptavidin beads via biotinylated α-CD19 antibody, incubated with 3G-myc-GPA red blood cells or red cells that contained sortase-labeled VHH7-LPETG (SEQ ID NO: 44)-myc GPA on their surface, and washed. Immobilization of B cells in all experimental set-ups was tested by presence of CD19 in α-CD19 immunoblot and binding between B cells and red blood cells was evaluated by the presence of hemoglobin in the α-hemoglobin immunoblot. (C) Schematic for experiment shown in (B); LPETG: (SEQ ID NO: 44).
# A B cell—red blood cell binding assay was performed as follows. B cells were isolated from either wild-type C57BL/6 mice or mice knock-out for MI-IC class II using Dynabeads Mouse CD43 (Untouched B cells) (Life Technologies) according to manufacturer's recommendations. […]
binder,measurement,value
B1,binding result,no binding
